Data as given in patent publication US20090181459A1 (published 2009).

Legend:
[1] = biological target: mouse glucocorticoid-induced TNF receptor ligand (mGITRL), expressed on the cell surface (mouse) (UniProt Q7TS55); assay: flow cytometry, spleen cells gated on F4/80+ macrophages; isotype control background
[2] = biological target: mouse glucocorticoid-induced tumor necrosis factor receptor (mGITR), expressed on the cell surface (mouse) (UniProt O35714); assay: flow cytometry on Th1 clone R2.2; isotype control background
[3] = biological target: mouse glucocorticoid-induced TNF receptor ligand (mGITRL), expressed on the cell surface (mouse) (UniProt Q7TS55); assay: flow cytometry, spleen cells gated on B220+ B cells; isotype control background
[4] = biological target: mouse glucocorticoid-induced TNF receptor ligand (mGITRL), expressed on the cell surface (mouse) (UniProt Q7TS55); assay: flow cytometry, peritoneal cells gated on F4/80+; isotype control background
[5] = biological target: mouse glucocorticoid-induced tumor necrosis factor receptor (mGITR), expressed on the cell surface (mouse) (UniProt O35714); assay: flow cytometry on Th2 clone R2.4; isotype control background
[6] = biological target: T1, mouse glucocorticoid-induced tumor necrosis factor receptor (mGITR), expressed on the cell surface (mouse, UniProt O35714 20-228); assay: cell-based or functional assay
T1 sequence (looked up): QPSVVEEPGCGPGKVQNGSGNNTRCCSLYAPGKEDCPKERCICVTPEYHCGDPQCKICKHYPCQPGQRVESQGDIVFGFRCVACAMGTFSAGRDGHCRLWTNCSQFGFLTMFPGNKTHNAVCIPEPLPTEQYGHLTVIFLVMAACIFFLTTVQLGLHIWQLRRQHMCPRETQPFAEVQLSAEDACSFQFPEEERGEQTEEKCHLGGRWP

Molecule	Median fluorescence intensity (MFI) [1]	Median fluorescence intensity (MFI) [2]	Median fluorescence intensity (MFI) [3]	MFI [4]	Median fluorescence intensity (MFI) [5]	Luciferase activity (NF-kB reporter plasmid), 48-h incubation [6] [fold]
isotype control antibody (rat anti-canine CD8 antibody, IgG1)	25.4	35.2	7.7	255	50.5	
mouse glucocorticoid-induced TNF receptor ligand (mGITRL), expressed on the cell surface (ligand) MEEMPLRESSPQRAERCKKSWLLCIVALLLMLLCSLGTLIYTSLKPTAIESCMVKFELSSSKWHMTSPKPHCVNTTSDGKLKILQSGTYLIYGQVIPVDKKYIKDNAPFVVQIYKKNDVLQTLMNDFQILPIGGVYELHAGDNIYLKFNSKDHIQKNNTYWGIILMPDLPFIS						6
